From patent US20030068416A1, “Method of lyophylization to reduce solvent content and enhance product recovery” (priority 2001, published 2003)

Assays:
Type in all cases: physicochemical
[1] = Residual solvent content of trypsin after lyophilization (Example 1); settings: primary and secondary drying cycles, 62 hours
Experimental: (§1) When the solvent is water, the residual solvent content referenced herein refer to levels determined by the FDA approved, modified Karl Fischer method (Meyer and Boyd, Analytical Chem., 31:215-219, 1959; May, et al., J. Biol. Standardization, 10:249-259, 1982; Centers for Biologics Evaluation and Research, FDA, Docket No. 89D-0140, 83-93; 1990) or by near infrared spectroscopy.
1 ml aliquots of trypsin alone or with 100 mM sodium ascorbate were placed in 3 ml vials. Samples were prepared in triplicate and subjected to lyophilization (primary and secondary drying cycles; 62 hours).

[2] = Residual solvent content of trypsin after lyophilization, sampled after primary drying and at end of cycle (Example 2)
Experimental: as §1
(§2) 1 ml aliquots of trypsin alone or with 100 mM sodium ascorbate were placed in 3 ml vials. Samples were prepared in triplicate and subjected to lyophilization. Samples were removed (using sample thief) at the end of primary drying (22 hours after start of the cycle), the cycle continued to completion (62 hours after start of cycle) at this time vials were sealed under vacuum and removed from the freeze dryer.

[3] = Residual solvent content of trypsin frozen overnight at -70 C and lyophilized (Example 3); settings: frozen overnight at -70 C before lyophilization
Experimental: as §1
as §2, with “vials and frozen overnight at −70° C.” for “vials.”, “quadruplicate” for “triplicate”

In the case of trypsin, the residual solvent content ([1]; absence of sodium ascorbate) was “about 1.8 % water”, the residual solvent content ([1]; presence of 100 mM sodium ascorbate) was “about 0.7 % water” and the residual solvent content ([2]; absence of sodium ascorbate, following a primary drying cycle alone (22 hours)) was “about 5.8 % water”. For the same substance, the residual solvent content ([2]; absence of sodium ascorbate, following primary and secondary drying cycle (62 hours)) was “about 5.4 % water”, the residual solvent content ([2]; presence of 100 mM sodium ascorbate, following a primary drying cycle alone (22 hours)) was “about 2.8 % water” and the residual solvent content ([2]; presence of 100 mM sodium ascorbate, following primary and secondary drying cycle (62 hours)) was “about 1.1 % water”. The residual solvent content ([3]; absence of ascorbate) was “about 3.9 % water” and the residual solvent content ([3]; presence of ascorbate (100 mM sodium ascorbate)) was 0.7 % water.
